Experiments:
[1] = target: AS15[H33R] monobody, displayed on yeast; experiment: flow cytometry on cells
[2] = target: AS27[Y33R] monobody, displayed on yeast; experiment: flow cytometry on cells

fold reduction of affinity against AS15 [1]: 4 times
fold reduction of affinity against AS27 [2]: 8 times
Substance: Abl SH2 domain, biotinylated (for yeast display measurements) (from UniProt P00519 112-232) (domain or fragment)
